{"source": "patent US20080193453A1", "key": {"[1]": {"target": "Recombinant (His)6-tagged TfR1 ectodomain (human) (UniProt P02786)", "sequence (P02786 89-760 limits assumed, form in doubt)": "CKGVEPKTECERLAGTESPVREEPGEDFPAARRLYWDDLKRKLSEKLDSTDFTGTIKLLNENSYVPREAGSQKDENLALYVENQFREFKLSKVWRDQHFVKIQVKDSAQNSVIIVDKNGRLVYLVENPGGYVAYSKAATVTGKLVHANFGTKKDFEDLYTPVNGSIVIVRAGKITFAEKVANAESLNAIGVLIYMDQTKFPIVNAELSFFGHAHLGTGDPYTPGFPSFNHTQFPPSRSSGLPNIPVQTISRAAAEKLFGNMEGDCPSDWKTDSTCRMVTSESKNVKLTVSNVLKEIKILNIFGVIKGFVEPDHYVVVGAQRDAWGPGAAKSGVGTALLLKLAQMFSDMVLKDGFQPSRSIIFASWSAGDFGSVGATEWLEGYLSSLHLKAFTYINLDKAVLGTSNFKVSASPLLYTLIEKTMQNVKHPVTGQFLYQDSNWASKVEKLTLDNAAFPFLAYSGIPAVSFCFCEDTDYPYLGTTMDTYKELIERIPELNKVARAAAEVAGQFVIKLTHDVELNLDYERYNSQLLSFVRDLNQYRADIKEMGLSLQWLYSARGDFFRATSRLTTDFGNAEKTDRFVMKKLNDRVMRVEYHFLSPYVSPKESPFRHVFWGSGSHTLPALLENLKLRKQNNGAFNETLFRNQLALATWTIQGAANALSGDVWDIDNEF", "assay": "SPR (Biacore 2000), K'd, TfR-(His)6 captured at high density (1650 RU) on anti-(His)6 chip"}, "[2]": {"target": "transferrin receptor (TfR, CD71) on cells (human) (UniProt P02786)", "sequence (P02786 whole entry)": "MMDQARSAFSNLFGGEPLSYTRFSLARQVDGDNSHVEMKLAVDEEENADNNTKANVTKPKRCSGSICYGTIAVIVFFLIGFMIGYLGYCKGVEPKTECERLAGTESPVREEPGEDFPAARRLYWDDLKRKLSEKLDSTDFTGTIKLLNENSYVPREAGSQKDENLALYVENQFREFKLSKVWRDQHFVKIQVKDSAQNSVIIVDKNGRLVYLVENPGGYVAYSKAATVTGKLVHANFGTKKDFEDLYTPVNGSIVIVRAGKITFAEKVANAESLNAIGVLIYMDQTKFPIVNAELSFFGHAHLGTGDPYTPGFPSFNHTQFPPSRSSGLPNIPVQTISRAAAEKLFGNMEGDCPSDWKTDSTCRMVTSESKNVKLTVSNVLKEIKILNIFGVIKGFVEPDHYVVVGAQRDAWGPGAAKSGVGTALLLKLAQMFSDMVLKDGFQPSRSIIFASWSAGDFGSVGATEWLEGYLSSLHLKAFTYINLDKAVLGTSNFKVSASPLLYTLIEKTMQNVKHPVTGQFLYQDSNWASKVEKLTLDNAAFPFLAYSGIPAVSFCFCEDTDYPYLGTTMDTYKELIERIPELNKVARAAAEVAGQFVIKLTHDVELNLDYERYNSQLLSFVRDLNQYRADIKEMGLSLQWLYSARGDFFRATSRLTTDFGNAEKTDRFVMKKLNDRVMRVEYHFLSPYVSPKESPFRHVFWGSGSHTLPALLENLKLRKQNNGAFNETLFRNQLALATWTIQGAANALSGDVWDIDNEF", "assay": "cell-based or functional assay"}, "[3]": {"target": "Recombinant (His)6-tagged TfR1 ectodomain (human) (UniProt P02786)", "assay": "SPR (Biacore 2000), K'd, TfR-(His)6 captured at low density (120 RU) on anti-(His)6 chip"}}}
{"substance": "anti-human TfR (CD71) monoclonal antibody A24", "values": [{"measurement": "Kd", "setting": "[1]", "value": 1.02, "unit": "nM"}, {"measurement": "down-regulation of TfR expression in ex vivo cell cultures from chronic and acute forms of ATL", "setting": "[2]", "value": "> 75", "unit": "%"}, {"measurement": "down-regulation of TfR expression on HTLV-1 infected cells from acute ATL donors in IL-15 or IL-2/IL-15 conditioned medium", "setting": "[2]", "value": "> 65", "unit": "%"}, {"measurement": "Kd", "setting": "[3]", "value": 2.69, "unit": "nM"}]}
